# Assays:
# Avi-human CD38 ECD [1] = target: T1, Avi-human CD38 ECD (human, UniProt P28907 43-300); assay: ELISA on human CD38 ECD; class C = EC50 >0.5 nM (table legend)
# T1 construct: eluted as a monomer; also called hCD38; huCD38
# Avi-human CD38 ECD [2] = target: T1, Avi-human CD38 ECD; assay: ELISA on human CD38 ECD; class A = EC50 0.02 nM - 0.1 nM (table legend)
# Avi-human CD38 ECD [3] = target: T1, Avi-human CD38 ECD; assay: ELISA on human CD38 ECD; class B = EC50 0.1 nM - 0.5 nM (table legend)
# [4] = target: ICAM1 on the surface of tumor cells (human, UniProt P05362 28-532); assay: cell-based or functional assay
# Sequence of ICAM1 on the surface of tumor cells (P05362 28-532): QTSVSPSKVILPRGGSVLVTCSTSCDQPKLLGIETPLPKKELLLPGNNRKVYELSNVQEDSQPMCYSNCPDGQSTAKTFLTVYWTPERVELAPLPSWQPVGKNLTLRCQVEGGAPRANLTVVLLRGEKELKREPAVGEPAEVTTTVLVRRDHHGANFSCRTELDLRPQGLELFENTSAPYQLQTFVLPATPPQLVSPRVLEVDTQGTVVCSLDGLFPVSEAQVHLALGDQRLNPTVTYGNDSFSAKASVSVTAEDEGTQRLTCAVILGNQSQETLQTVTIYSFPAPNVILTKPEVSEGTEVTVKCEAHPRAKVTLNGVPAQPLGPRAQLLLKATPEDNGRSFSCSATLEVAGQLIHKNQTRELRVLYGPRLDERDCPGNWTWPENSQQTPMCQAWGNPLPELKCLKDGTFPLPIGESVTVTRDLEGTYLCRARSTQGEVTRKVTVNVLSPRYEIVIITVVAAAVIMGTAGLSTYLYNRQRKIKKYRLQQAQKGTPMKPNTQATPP
Binder,EC50 (Avi-human CD38 ECD [2]),further results
"h18E4-19 HC E95A (antibody, name in Kabat numbering, V domains shown, Alanine scan variant of h18E4-19; Kabat numbers, not linear positions of the entry) VH: EVQLLESGGGLVQPGGSLRLSCAASGFSFNNYWIIWIRQAPGKGLEWVAAIYSPSGDIKYYADWAKGRFTVSKDNSKNTVYLQMNSLRAEDTAVYYCARALSGSSYEGYFESWGQGTLVTV VL: DIQLTQSPSTLSASVGDRVTITCRSSQSVYGHNWLAWYQQKPGKAPKLLMYRASNLASGVPSRFSGSGSGTEFTLTISSVQPDDFATYYCQGYYSGGSYAFGGGTKVEIK",–,EC50 (Avi-human CD38 ECD [1]): > 0.5 nM
"h18E4-19 HC E100bA (antibody, name in Kabat numbering, V domains shown, Alanine scan variant of h18E4-19; Kabat numbers, not linear positions of the entry) VH: EVQLLESGGGLVQPGGSLRLSCAASGFSFNNYWIIWIRQAPGKGLEWVAAIYSPSGDIKYYADWAKGRFTVSKDNSKNTVYLQMNSLRAEDTAVYYCARELSGSSYAGYFESWGQGTLVTV VL: DIQLTQSPSTLSASVGDRVTITCRSSQSVYGHNWLAWYQQKPGKAPKLLMYRASNLASGVPSRFSGSGSGTEFTLTISSVQPDDFATYYCQGYYSGGSYAFGGGTKVEIK",–,EC50 (Avi-human CD38 ECD [1]): > 0.5 nM
"h18E4-19 HC E101A (antibody, name in Kabat numbering, V domains shown, Alanine scan variant of h18E4-19; Kabat numbers, not linear positions of the entry) VH: EVQLLESGGGLVQPGGSLRLSCAASGFSFNNYWIIWIRQAPGKGLEWVAAIYSPSGDIKYYADWAKGRFTVSKDNSKNTVYLQMNSLRAEDTAVYYCARELSGSSYEGYFASWGQGTLVTV VL: DIQLTQSPSTLSASVGDRVTITCRSSQSVYGHNWLAWYQQKPGKAPKLLMYRASNLASGVPSRFSGSGSGTEFTLTISSVQPDDFATYYCQGYYSGGSYAFGGGTKVEIK",0.02 to 0.1 nM,–
"h18E4-19 HC F100eA (antibody, name in Kabat numbering, V domains shown, Alanine scan variant of h18E4-19; Kabat numbers, not linear positions of the entry) VH: EVQLLESGGGLVQPGGSLRLSCAASGFSFNNYWIIWIRQAPGKGLEWVAAIYSPSGDIKYYADWAKGRFTVSKDNSKNTVYLQMNSLRAEDTAVYYCARELSGSSYEGYAESWGQGTLVTV VL: DIQLTQSPSTLSASVGDRVTITCRSSQSVYGHNWLAWYQQKPGKAPKLLMYRASNLASGVPSRFSGSGSGTEFTLTISSVQPDDFATYYCQGYYSGGSYAFGGGTKVEIK",0.02 to 0.1 nM,–
"h18E4-19 HC G100cA (antibody, name in Kabat numbering, V domains shown, Alanine scan variant of h18E4-19; Kabat numbers, not linear positions of the entry) VH: EVQLLESGGGLVQPGGSLRLSCAASGFSFNNYWIIWIRQAPGKGLEWVAAIYSPSGDIKYYADWAKGRFTVSKDNSKNTVYLQMNSLRAEDTAVYYCARELSGSSYEAYFESWGQGTLVTV VL: DIQLTQSPSTLSASVGDRVTITCRSSQSVYGHNWLAWYQQKPGKAPKLLMYRASNLASGVPSRFSGSGSGTEFTLTISSVQPDDFATYYCQGYYSGGSYAFGGGTKVEIK",–,EC50 (Avi-human CD38 ECD [3]): 0.1 to 0.5 nM
"h18E4-19 HC L96A (antibody, name in Kabat numbering, V domains shown, Alanine scan variant of h18E4-19; Kabat numbers, not linear positions of the entry) VH: EVQLLESGGGLVQPGGSLRLSCAASGFSFNNYWIIWIRQAPGKGLEWVAAIYSPSGDIKYYADWAKGRFTVSKDNSKNTVYLQMNSLRAEDTAVYYCAREASGSSYEGYFESWGQGTLVTV VL: DIQLTQSPSTLSASVGDRVTITCRSSQSVYGHNWLAWYQQKPGKAPKLLMYRASNLASGVPSRFSGSGSGTEFTLTISSVQPDDFATYYCQGYYSGGSYAFGGGTKVEIK",0.02 to 0.1 nM,–
"h18E4-19 HC S97A (antibody, name in Kabat numbering, V domains shown, Alanine scan variant of h18E4-19; Kabat numbers, not linear positions of the entry) VH: EVQLLESGGGLVQPGGSLRLSCAASGFSFNNYWIIWIRQAPGKGLEWVAAIYSPSGDIKYYADWAKGRFTVSKDNSKNTVYLQMNSLRAEDTAVYYCARELAGSSYEGYFESWGQGTLVTV VL: DIQLTQSPSTLSASVGDRVTITCRSSQSVYGHNWLAWYQQKPGKAPKLLMYRASNLASGVPSRFSGSGSGTEFTLTISSVQPDDFATYYCQGYYSGGSYAFGGGTKVEIK",0.02 to 0.1 nM,–
"h18E4-19 HC S99A (antibody, name in Kabat numbering, V domains shown, Alanine scan variant of h18E4-19; Kabat numbers, not linear positions of the entry) VH: EVQLLESGGGLVQPGGSLRLSCAASGFSFNNYWIIWIRQAPGKGLEWVAAIYSPSGDIKYYADWAKGRFTVSKDNSKNTVYLQMNSLRAEDTAVYYCARELSGASYEGYFESWGQGTLVTV VL: DIQLTQSPSTLSASVGDRVTITCRSSQSVYGHNWLAWYQQKPGKAPKLLMYRASNLASGVPSRFSGSGSGTEFTLTISSVQPDDFATYYCQGYYSGGSYAFGGGTKVEIK",0.02 to 0.1 nM,–
"h18E4-19 HC S100A (antibody, name in Kabat numbering, V domains shown, Alanine scan variant of h18E4-19; Kabat numbers, not linear positions of the entry) VH: EVQLLESGGGLVQPGGSLRLSCAASGFSFNNYWIIWIRQAPGKGLEWVAAIYSPSGDIKYYADWAKGRFTVSKDNSKNTVYLQMNSLRAEDTAVYYCARELSGSAYEGYFESWGQGTLVTV VL: DIQLTQSPSTLSASVGDRVTITCRSSQSVYGHNWLAWYQQKPGKAPKLLMYRASNLASGVPSRFSGSGSGTEFTLTISSVQPDDFATYYCQGYYSGGSYAFGGGTKVEIK",0.02 to 0.1 nM,–
"h18E4-19 HC S102A (antibody, name in Kabat numbering, V domains shown, Alanine scan variant of h18E4-19; Kabat numbers, not linear positions of the entry) VH: EVQLLESGGGLVQPGGSLRLSCAASGFSFNNYWIIWIRQAPGKGLEWVAAIYSPSGDIKYYADWAKGRFTVSKDNSKNTVYLQMNSLRAEDTAVYYCARELSGSSYEGYFEAWGQGTLVTV VL: DIQLTQSPSTLSASVGDRVTITCRSSQSVYGHNWLAWYQQKPGKAPKLLMYRASNLASGVPSRFSGSGSGTEFTLTISSVQPDDFATYYCQGYYSGGSYAFGGGTKVEIK",0.02 to 0.1 nM,–
"h18E4-19 HC Y100aA (antibody, name in Kabat numbering, V domains shown, Alanine scan variant of h18E4-19; Kabat numbers, not linear positions of the entry) VH: EVQLLESGGGLVQPGGSLRLSCAASGFSFNNYWIIWIRQAPGKGLEWVAAIYSPSGDIKYYADWAKGRFTVSKDNSKNTVYLQMNSLRAEDTAVYYCARELSGSSAEGYFESWGQGTLVTV VL: DIQLTQSPSTLSASVGDRVTITCRSSQSVYGHNWLAWYQQKPGKAPKLLMYRASNLASGVPSRFSGSGSGTEFTLTISSVQPDDFATYYCQGYYSGGSYAFGGGTKVEIK",0.02 to 0.1 nM,–
"h18E4-19 HC Y100dA (antibody, name in Kabat numbering, V domains shown, Alanine scan variant of h18E4-19; Kabat numbers, not linear positions of the entry) VH: EVQLLESGGGLVQPGGSLRLSCAASGFSFNNYWIIWIRQAPGKGLEWVAAIYSPSGDIKYYADWAKGRFTVSKDNSKNTVYLQMNSLRAEDTAVYYCARELSGSSYEGAFESWGQGTLVTV VL: DIQLTQSPSTLSASVGDRVTITCRSSQSVYGHNWLAWYQQKPGKAPKLLMYRASNLASGVPSRFSGSGSGTEFTLTISSVQPDDFATYYCQGYYSGGSYAFGGGTKVEIK",–,EC50 (Avi-human CD38 ECD [1]): > 0.5 nM
"h18E4-19 LC G94A (antibody, V domains shown, Alanine scan variant of h18E4-19; Kabat numbers, not linear positions of the entry) VH: EVQLLESGGGLVQPGGSLRLSCAASGFSFNNYWIIWIRQAPGKGLEWVAAIYSPSGDIKYYADWAKGRFTVSKDNSKNTVYLQMNSLRAEDTAVYYCARELSGSSYEGYFESWGQGTLVTV VL: DIQLTQSPSTLSASVGDRVTITCRSSQSVYGHNWLAWYQQKPGKAPKLLMYRASNLASGVPSRFSGSGSGTEFTLTISSVQPDDFATYYCQGYYSAGSYAFGGGTKVEIK",–,EC50 (Avi-human CD38 ECD [1]): > 0.5 nM
"h18E4-19 LC G95A (antibody, V domains shown, Alanine scan variant of h18E4-19; Kabat numbers, not linear positions of the entry) VH: EVQLLESGGGLVQPGGSLRLSCAASGFSFNNYWIIWIRQAPGKGLEWVAAIYSPSGDIKYYADWAKGRFTVSKDNSKNTVYLQMNSLRAEDTAVYYCARELSGSSYEGYFESWGQGTLVTV VL: DIQLTQSPSTLSASVGDRVTITCRSSQSVYGHNWLAWYQQKPGKAPKLLMYRASNLASGVPSRFSGSGSGTEFTLTISSVQPDDFATYYCQGYYSGASYAFGGGTKVEIK",0.02 to 0.1 nM,–
"h18E4-19 LC Q89A (antibody, V domains shown, Alanine scan variant of h18E4-19; Kabat numbers, not linear positions of the entry) VH: EVQLLESGGGLVQPGGSLRLSCAASGFSFNNYWIIWIRQAPGKGLEWVAAIYSPSGDIKYYADWAKGRFTVSKDNSKNTVYLQMNSLRAEDTAVYYCARELSGSSYEGYFESWGQGTLVTV VL: DIQLTQSPSTLSASVGDRVTITCRSSQSVYGHNWLAWYQQKPGKAPKLLMYRASNLASGVPSRFSGSGSGTEFTLTISSVQPDDFATYYCAGYYSGGSYAFGGGTKVEIK",0.02 to 0.1 nM,–
"h18E4-19 LC S95aA (antibody, V domains shown, Alanine scan variant of h18E4-19; Kabat numbers, not linear positions of the entry) VH: EVQLLESGGGLVQPGGSLRLSCAASGFSFNNYWIIWIRQAPGKGLEWVAAIYSPSGDIKYYADWAKGRFTVSKDNSKNTVYLQMNSLRAEDTAVYYCARELSGSSYEGYFESWGQGTLVTV VL: DIQLTQSPSTLSASVGDRVTITCRSSQSVYGHNWLAWYQQKPGKAPKLLMYRASNLASGVPSRFSGSGSGTEFTLTISSVQPDDFATYYCQGYYSGGAYAFGGGTKVEIK",0.02 to 0.1 nM,–
"h18E4-19 LC Y91A (antibody, V domains shown, Alanine scan variant of h18E4-19; Kabat numbers, not linear positions of the entry) VH: EVQLLESGGGLVQPGGSLRLSCAASGFSFNNYWIIWIRQAPGKGLEWVAAIYSPSGDIKYYADWAKGRFTVSKDNSKNTVYLQMNSLRAEDTAVYYCARELSGSSYEGYFESWGQGTLVTV VL: DIQLTQSPSTLSASVGDRVTITCRSSQSVYGHNWLAWYQQKPGKAPKLLMYRASNLASGVPSRFSGSGSGTEFTLTISSVQPDDFATYYCQGAYSGGSYAFGGGTKVEIK",–,EC50 (Avi-human CD38 ECD [1]): > 0.5 nM
"h18E4-19 LC Y92A (antibody, V domains shown, Alanine scan variant of h18E4-19; Kabat numbers, not linear positions of the entry) VH: EVQLLESGGGLVQPGGSLRLSCAASGFSFNNYWIIWIRQAPGKGLEWVAAIYSPSGDIKYYADWAKGRFTVSKDNSKNTVYLQMNSLRAEDTAVYYCARELSGSSYEGYFESWGQGTLVTV VL: DIQLTQSPSTLSASVGDRVTITCRSSQSVYGHNWLAWYQQKPGKAPKLLMYRASNLASGVPSRFSGSGSGTEFTLTISSVQPDDFATYYCQGYASGGSYAFGGGTKVEIK",0.02 to 0.1 nM,–
"h11F2-6 (antibody, V domains shown) VH: EVQVLESGGGLVQPGGSLRLSCAVSGFSLSSHAMGWVRQAPGKGLEWIGIIGSSDRTYYASWAKGRFTISKDNSKNTVYLQINSPRAEDTAVYYCVRDPYDSYDEGYRLWGQGTLVTVSS VL: DIQMTQSPSTLSASVGDRVTITCQASQSIYRYLSWYQQKPGKAPKFLIYDASKLASGVPSRFSGSGSGTEFTLTISSVQPDDFATYYCQQAYSSGSIDNAFGGGTKVEIK",–,ADCC EC50 on Daudi cells; antibody made in CHO FUT8 -/- (afucosylated) [4]: 0.008 nM; ADCC EC50 on HuNS1 cells; antibody made in CHO FUT8 -/- (afucosylated) [4]: 0.04 nM; ADCC EC50 on NCI-H2291 cells; antibody made in CHO [4]: 0.329 nM; ADCC EC50 on NCI-H2291 cells; antibody made in CHO FUT8 -/- (afucosylated) [4]: 0.019 nM; ADCC EC50 on NCI-H2342 cells; antibody made in CHO [4]: 0.69 nM; ADCC EC50 on NCI-H2342 cells; antibody made in CHO FUT8 -/- (afucosylated) [4]: 0.07 nM; ADCC EC50 on Raji cells; antibody made in CHO FUT8 -/- (afucosylated) [4]: 0.038 nM
"h18E4-19 HC G98A (antibody, V domains shown, Alanine scan variant of h18E4-19; Kabat numbers, not linear positions of the entry) VH: EVQLLESGGGLVQPGGSLRLSCAASGFSFNNYWIIWIRQAPGKGLEWVAAIYSPSGDIKYYADWAKGRFTVSKDNSKNTVYLQMNSLRAEDTAVYYCARELSASSYEGYFESWGQGTLVTVSS VL: DIQLTQSPSTLSASVGDRVTITCRSSQSVYGHNWLAWYQQKPGKAPKLLMYRASNLASGVPSRFSGSGSGTEFTLTISSVQPDDFATYYCQGYYSGGSYAFGGGTKVEIK",0.02 to 0.1 nM,–
